Experimental findings from patent US20050239704, “Compositions and methods for affecting virulence determinants in bacteria” (published 2005) are described below.

The data set deals with SarR (Staphylococcus aureus, UniProt Q2FEJ8 SEQ:1-115). Nature of the data set: footprint; protected region nt 81-108 within the 109-bp fragment. The note with it: tags: untagged, pET11b expressed in E. coli BL21(DE3)pLysS; chain copies: 2 (inferred).
Sequence of SarR (Q2FEJ8 whole entry, the tested form may be a part): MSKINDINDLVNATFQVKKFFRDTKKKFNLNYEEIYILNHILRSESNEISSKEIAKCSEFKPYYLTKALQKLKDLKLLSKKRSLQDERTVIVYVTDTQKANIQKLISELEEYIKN

B1: sarA P2 protected region (nt 81-108) (dsDNA)
DNA 1: TAAATTAATGTTATTTTTTAATAATTTA
DNA 2: TAAATTATTAAAAAATAACATTAATTTA
With B1, the binding result is “binds”.
